These results are taken from PMC7865317, “Coupling of a Novel TIMP3 Peptide to Carboxypeptidase G2 for Pro-Drug Activation at the Tumour Site” (Molecules, 2021).

The assay has as its target T1, VEGFR2-immunoglobulin Fc fusion protein (UniProt P35968 20-764).
T1 construct: VEGFR2 (vascular endothelial growth factor receptor 2); Probably the extracellular domain of VEGFR2 fused to an IgG Fc, as sold by R&D Systems (surmise); also called VEGFR2-Fc; source: bought: R&D Systems
Put plainly: BLI; BLItz system; VEGFR2-Fc (5 uL at 250 ug/mL) loaded on protein A-coated probes for 300 s; CPG2 or CPG2-p700 in the drop holder, five runs at 600 nM to 10 uM; PBS. To be noted: both partners purified. For orientation: BLI is a label-free optical method that tracks binding on a fibre tip over time.

T1 sequence (P35968 20-764): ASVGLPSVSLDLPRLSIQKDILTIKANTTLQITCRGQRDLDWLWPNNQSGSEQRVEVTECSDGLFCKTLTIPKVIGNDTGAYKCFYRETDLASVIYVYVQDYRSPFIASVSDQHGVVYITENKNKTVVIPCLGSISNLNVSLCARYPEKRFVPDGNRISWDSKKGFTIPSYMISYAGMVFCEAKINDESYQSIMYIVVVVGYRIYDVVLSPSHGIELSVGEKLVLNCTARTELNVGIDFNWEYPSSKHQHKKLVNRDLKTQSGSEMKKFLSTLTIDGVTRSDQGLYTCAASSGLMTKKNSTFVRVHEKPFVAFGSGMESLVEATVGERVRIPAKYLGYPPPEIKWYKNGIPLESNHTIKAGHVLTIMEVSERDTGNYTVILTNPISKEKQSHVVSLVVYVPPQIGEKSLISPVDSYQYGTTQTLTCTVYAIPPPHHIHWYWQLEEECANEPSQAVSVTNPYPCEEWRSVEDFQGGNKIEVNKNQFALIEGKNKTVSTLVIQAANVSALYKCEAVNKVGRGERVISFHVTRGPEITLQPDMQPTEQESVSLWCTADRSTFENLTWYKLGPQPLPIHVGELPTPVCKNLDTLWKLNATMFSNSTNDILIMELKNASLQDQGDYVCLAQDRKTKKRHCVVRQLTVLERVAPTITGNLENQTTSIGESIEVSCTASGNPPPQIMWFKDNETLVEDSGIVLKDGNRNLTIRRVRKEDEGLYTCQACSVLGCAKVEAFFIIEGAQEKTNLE

B1: recombinant codon-optimised carboxypeptidase G2 (CPG2-His) (enzyme, Pseudomonas aeruginosa strain RS-16, UniProt P06621 23-415, looked up)
chain: ALAQKRDNVLFQAATDEQPAVIKTLEKLVNIETGTGDAEGIAAAGNFLEAELKNLGFTVTRSKSAGLVVGDNIVGKIKGRGGKNLLLMSHMDTVYLKGILAKAPFRVEGDKAYGPGIADDKGGNAVILHTLKLLKEYGVRDYGTITVLFNTDEEKGSFGSRDLIQEEAKLADYVLSFEPTSAGDEKLSLGTSGIAYVQVNITGKASHAGAAPELGVNALVEASDLVLRTMNIDDKAKNLRFNWTIAKAGNVSNIIPASATLNADVRYARNEDFDAAMKTLEERAQQKKLPEADVKVIVTRGRPAFNAGEGGKKLVDKAVAYYKEAGGTLGVEERTGGGTDAAYAALSGKPVIESLGLPGFGYHSDKAEYVDISAIPRRLYMAARLIMDLGAGK
notes: carboxypeptidase G2 (CPG2, glucarpidase), gene codon optimised for E. coli (Goda et al. 2009), approximately 1200 bp; Expected size 45 kDa; Cloned NdeI/NotI into pET28a, which may add an N-terminal His tag from the vector (surmise); construct in Supplementary Data S1; also called CPG2 alone; CPG2-only; source: E. coli BL21 (DE3), purified by Ni2+-NTA chromatography from pooled 2 M urea washes of …
On to B1, for which the Kd (commonly the constant that tells how readily two partners part at equilibrium) is 15 µM.
